Measurements as given in publication PMC11906491.

What follows are substances tested against neonatal FcR (FcRn) (UniProt P55899) (assay: BLI + SPR).
Sequence of UniProt P55899 (P55899 24-365): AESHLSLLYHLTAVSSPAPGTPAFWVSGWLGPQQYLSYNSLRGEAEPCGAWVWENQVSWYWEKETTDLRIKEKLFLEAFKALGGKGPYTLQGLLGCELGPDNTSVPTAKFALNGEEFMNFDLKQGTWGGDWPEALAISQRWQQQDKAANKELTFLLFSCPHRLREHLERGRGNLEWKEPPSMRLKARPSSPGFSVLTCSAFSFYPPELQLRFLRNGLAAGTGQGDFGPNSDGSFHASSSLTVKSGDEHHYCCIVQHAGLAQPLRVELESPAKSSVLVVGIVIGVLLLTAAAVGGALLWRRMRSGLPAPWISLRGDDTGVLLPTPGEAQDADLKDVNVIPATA

Row | Relative FcRn affinity (%) | Substance
1 | 104 | BAT1806/BIIB800 (antibody)
2 | 96 | reference tocilizumab (antibody)
3 | 100 | forced deamidation TCZ (antibody)
